The target in assay [1] is T1, recombinant cynomolgus monkey CD112R antigen (cynomolgus monkey, UniProt A0A2K5WVV8 1-322).
T1 construct: bought
T1 sequence: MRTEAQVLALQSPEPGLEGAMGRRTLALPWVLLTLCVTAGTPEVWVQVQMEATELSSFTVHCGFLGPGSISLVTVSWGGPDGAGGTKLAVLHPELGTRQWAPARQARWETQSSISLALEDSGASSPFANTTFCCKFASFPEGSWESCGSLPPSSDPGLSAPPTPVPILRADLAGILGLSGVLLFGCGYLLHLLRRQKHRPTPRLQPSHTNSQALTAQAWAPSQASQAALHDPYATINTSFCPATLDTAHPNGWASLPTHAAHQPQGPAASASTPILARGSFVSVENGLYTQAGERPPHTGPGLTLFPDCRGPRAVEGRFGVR
Description: ELISA on coated recombinant cynomolgus monkey CD112R, OD 450 nm, 4PL fit; unit from the axis. In general terms: An ELISA detects its analyte on a solid surface through an enzyme-linked reagent.

The target in assay [2] is T2, mouse CD112R antigen (mouse).
T2 construct: bought
Description: ELISA on coated mouse CD112R, OD 450 nm, ambiguous fit of a nearly flat curve; unit from the axis. The procedure:
(§1) Plates were coated with a recombinant cynomolgus monkey CD112R antigen (purchased from Acrobiosystems, Cat No. PVG-C5259) and a mouse CD112R antigen (purchased from Acrobiosystems, Cat No. PVG-M5257) at fixed concentrations, respectively, and the humanized anti-CD112R antibodies diluted in a gradient (initial concentration: 1 μg/mL, 2.5-fold gradient dilution, 12 concentration gradients in total) were added to bind to the antigens, HRP-conjugated mouse anti-human IgG4 Fc (Southern Biotech. 9200-05) was subjected to a 5000-fold dilution and used as detection antibody for detection. The color development was performed with 0.1 mg/mL TMB, and finally stopped with 2 M hydrochloric acid. […] EC₅₀ was obtained by fitting with a four-parameter logistic regression (4PL) model.

The target of assay [3] is T1, recombinant cynomolgus monkey CD112R …. Description: ELISA on coated recombinant cynomolgus monkey CD112R, OD 450 nm, ambiguous fit; unit from the axis. The procedure: A plate was coated with a recombinant cynomolgus monkey CD112R antigen (Acrobiosystems, Cat No. PVG-C5259) at a fixed concentration, and the chimeric anti-CD112R antibodies diluted in a gradient (initial concentration: 1 μg/mL, 2.5-fold gradient dilution, 12 concentration gradients in total) were added to bind to the antigen. Horseradish peroxidase (HRP)-conjugated mouse anti-human IgG4 Fc (Southern Biotech, 9200-05) was subjected to a 5000-fold dilution and used as a detection antibody for detection. The color development was performed with 0.1 mg/mL TMB, and finally stopped with 2 M hydrochloric acid. […] EC₅₀ was obtained by fitting with a four-parameter logistic regression (4PL) model.

The target in assay [4] is T3, human CD112R on CHO-CD112R cells (human, UniProt Q6DKI7 41-326).
T3 construct: whole, on cells; also called hCD112R; PVRIG
T3 sequence (looked up): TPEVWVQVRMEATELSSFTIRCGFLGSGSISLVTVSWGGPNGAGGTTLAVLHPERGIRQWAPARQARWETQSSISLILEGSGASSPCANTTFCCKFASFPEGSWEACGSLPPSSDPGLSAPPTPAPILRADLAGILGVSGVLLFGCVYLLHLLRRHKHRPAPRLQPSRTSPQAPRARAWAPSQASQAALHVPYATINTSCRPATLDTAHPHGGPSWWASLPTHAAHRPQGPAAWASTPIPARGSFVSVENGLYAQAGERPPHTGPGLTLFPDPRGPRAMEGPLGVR
Description: FACS on CHO-CD112R cells; EC50 Ref/EC50 antibody. In a few lines: (§2)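 CHO cells stably expressing human CD112R (Met1-Arg326) incubated 30 min at 4 °C with antibody, top 50 μg/mL, 5-fold dilutions, 12 points. Fluorescent secondary antibody added, 30 min at 4 °C. MFI by flow cytometry; EC50 from fitted dose-response curves, with reference anti-CD112R and anti-KLH IgG4 controls.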

The target of assay [5] is T3, human CD112R on CHO-CD112R cells. In words: FACS on CHO-CD112R cells. A digest of the protocol: as §2
Assay [6] concerns the target T4, hCD112R mFC recombinant protein (human; murine, UniProt Q6DKI7 41-160).
T4 construct: range 41-160; expressed in 293E cells; also called hCD112R ECD mFC; hCD112R-ECD-mFC; not shown: murine IgG2a Fc domain (MX2-mFc vector)
T4 sequence (looked up): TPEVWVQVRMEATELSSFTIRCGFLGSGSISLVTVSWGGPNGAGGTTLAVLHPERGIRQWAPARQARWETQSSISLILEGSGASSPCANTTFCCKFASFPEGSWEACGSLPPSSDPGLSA
In words: FACS competition, hCD112R mFc on CHO CD112 cells; IC50 COM701/IC50 antibody. A digest of the protocol: (§3)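 CHO cells overexpressing human CD112 were co-incubated 30 min at 4 °C with hCD112R mFc (5 μg/mL) and humanized anti-CD112R antibodies (from 100 μg/mL, 3-fold, 10 points). Bound fusion protein detected with anti-mouse IgG Fc secondary by flow cytometry; IC50 from four-parameter fit of MFI. COM701 served as positive control, anti-KLH hu-IgG4 as negative.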

Assay [7] deals with T4, hCD112R mFC recombinant protein. Description: ELISA, coated hCD112R-ECD-mFC. A digest of the protocol:
(§4)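 Plates coated with hCD112R-ECD-mFC at 1.5 μg/mL; humanized antibodies titrated from 1 μg/mL, 2.5-fold, 12 points. Bound antibody detected with HRP anti-human IgG Fc and TMB, read at 420/620 nm; EC50 from 4PL fit, COM701 and anti-KLH hu-IgG4 as controls.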

Assay [8] has the same target. Description: FACS competition, hCD112R mFc on CHO CD112 cells. In a few lines: as §3
The target in assay [9] is T5, human CD112R on Jurkat CD112R effector cells (human, UniProt Q6DKI7 1-326).
T5 sequence (looked up): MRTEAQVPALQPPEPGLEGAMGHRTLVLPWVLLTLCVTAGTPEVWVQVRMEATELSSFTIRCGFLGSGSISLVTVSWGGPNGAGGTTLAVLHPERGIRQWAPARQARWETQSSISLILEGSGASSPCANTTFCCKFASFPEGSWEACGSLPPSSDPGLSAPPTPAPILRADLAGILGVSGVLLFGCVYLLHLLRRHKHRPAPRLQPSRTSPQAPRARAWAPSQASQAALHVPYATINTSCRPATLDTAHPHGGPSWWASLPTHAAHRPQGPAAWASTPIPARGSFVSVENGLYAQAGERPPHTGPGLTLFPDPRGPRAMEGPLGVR
Description: cell-based or functional assay.

In assay [10] the target is T1, recombinant cynomolgus monkey CD112R …. Description: ELISA, coated cynomolgus monkey CD112R. The procedure:
Plates were coated with a recombinant cynomolgus monkey CD112R antigen (purchased from Acrobiosystems, Cat No. PVG-C5259) and a mouse CD112R antigen (purchased from Acrobiosystems, Cat No. PVG-M5257) at fixed concentrations, respectively, and the humanized anti-CD112R antibodies diluted in a gradient (initial concentration: 1 μg/mL, 2.5-fold gradient dilution, 12 concentration gradients in total) were added to bind to the antigens, HRP-conjugated mouse anti-human IgG4 Fc (Southern Biotech. 9200-05) was subjected to a 5000-fold dilution and used as detection antibody for detection. The color development was performed with 0.1 mg/mL TMB, and finally stopped with 2 M hydrochloric acid. The plates were read at 420 nm/620 nm. EC₅₀ was obtained by fitting with a four-parameter logistic regression (4PL) model.

In assay [11] the target is T4, hCD112R mFC recombinant protein. Description: ELISA, coated hCD112R-ECD-mFC; EC50 COM701/EC50 antibody. In a few lines:
as §4

The target in assay [12] is T2, mouse CD112R antigen. Description: ELISA on coated mouse CD112R, OD 450 nm, fit of a nearly flat curve; unit from the axis. On the procedure: as §1

In general, EC50 refers to the concentration giving half of the maximal effect. In general, IC50 refers to the concentration at which inhibition is half-maximal.

B1: COM701 (antibody, V domains shown)
VH: QVQLVQSGAEVKKPGASVKVSCKASGYTFTDYNINWVRQAPGQGLEWMGYIYPYIGGSGYAQKFQGRVTMTRDTSTSTVYMELSSLRSEDTAVYYCAREDKTARNAMDYWGQGTLVTVSS
VL: DIQMTQSPSSLSASVGDRVTITCRVSENIYSNLAWYQQKPGKAPKLLIYEATNLAEGVPSRFSGSGSGTDFTLTISSLQPEDFATYYCQHFWGTPYTFGQGTKLEIK
For the molecule B1, the EC50 in assay [1] is 0.00428 µg/mL; in the assay with mouse CD112R antigen [2], approximately 1.06 µg/mL.

B2: Chi-18 (antibody, V domains shown)
VH: EVQLQQSGAELVKPGASVKISCKASGYTFTDYNMDWVKQSHGKSLEWIGDIHPKYDRTSYNQNFKGKATLTVDKSSRTAYMELRSLTSEDTAVYFCVRINDFDEGFAMDYWGQGTSVTVSS
VL: QIVLTQSPAIMSVSPGEKVTMTCSATSSINYMHWYQQKSGTSPKRWIYDTSKLASGVPARFSGSGSGTSYSLTISNMEAEDAATYYCQQWTSNPLTFGAGTKLELK
notes: chimeric
For the molecule B2, the values for the 50% effective concentration (EC50) in assay [3] and in [5] were approximately 27600 µg/mL and 0.294 µg/mL, respectively. In addition, the “Relative activity (%)” value in [4] was found to be 572%.

B3: Hu59 (antibody, human IgG4 S228P, kappa)
heavy: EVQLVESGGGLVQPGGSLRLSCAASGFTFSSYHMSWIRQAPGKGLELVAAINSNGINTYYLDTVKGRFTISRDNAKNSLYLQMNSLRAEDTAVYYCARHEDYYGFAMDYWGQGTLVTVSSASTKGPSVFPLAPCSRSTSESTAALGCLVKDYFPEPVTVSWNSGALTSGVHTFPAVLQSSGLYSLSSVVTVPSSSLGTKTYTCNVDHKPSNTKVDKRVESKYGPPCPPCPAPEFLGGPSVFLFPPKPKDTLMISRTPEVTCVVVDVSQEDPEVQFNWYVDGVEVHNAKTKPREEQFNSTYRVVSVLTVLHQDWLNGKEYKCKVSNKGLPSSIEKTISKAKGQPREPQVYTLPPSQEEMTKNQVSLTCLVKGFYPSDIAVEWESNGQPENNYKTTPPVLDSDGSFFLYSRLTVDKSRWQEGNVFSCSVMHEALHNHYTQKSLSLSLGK
light: DIQMTQSPSSLSASVGDRVTITCKASQSVSNDVAWYQQKPGKAPKLLIYYVSNRFTGVPSRFSGSGSGTDFTLTISSLQPEDFATYFCQQAYRSPWTFGQGTKLEIKRTVAAPSVFIFPPSDEQLKSGTASVVCLLNNFYPREAKVQWKVDNALQSGNSQESVTEQDSKDSTYSLSSTLTLSKADYEKHKVYACEVTHQGLSSPVTKSFNRGEC
notes: humanized; 7C2VH2 + 7C2VL1
For B3, the results for the “Relative activity (%)” value in [6] and in assay [11] were 76% and 169%, respectively. Moreover, the figures for the 50% effective concentration (EC50) (in assay [7]; with mouse CD112R antigen [2]; in assay [10]) were 0.00496 µg/mL, approximately 1970 µg/mL and 0.00262 µg/mL, respectively. The IC50 in assay [8] was found to be 3.17 µg/mL. The “EC50, CD112R/CD112 reporter” value in [9] was determined as 0.0188 µg/mL. Also, the “Relative activity (%), EC50 COM701/EC50 antibody” value in assay [9] is 312%.

B4: Hu16 (antibody, human IgG4 S228P, kappa)
heavy: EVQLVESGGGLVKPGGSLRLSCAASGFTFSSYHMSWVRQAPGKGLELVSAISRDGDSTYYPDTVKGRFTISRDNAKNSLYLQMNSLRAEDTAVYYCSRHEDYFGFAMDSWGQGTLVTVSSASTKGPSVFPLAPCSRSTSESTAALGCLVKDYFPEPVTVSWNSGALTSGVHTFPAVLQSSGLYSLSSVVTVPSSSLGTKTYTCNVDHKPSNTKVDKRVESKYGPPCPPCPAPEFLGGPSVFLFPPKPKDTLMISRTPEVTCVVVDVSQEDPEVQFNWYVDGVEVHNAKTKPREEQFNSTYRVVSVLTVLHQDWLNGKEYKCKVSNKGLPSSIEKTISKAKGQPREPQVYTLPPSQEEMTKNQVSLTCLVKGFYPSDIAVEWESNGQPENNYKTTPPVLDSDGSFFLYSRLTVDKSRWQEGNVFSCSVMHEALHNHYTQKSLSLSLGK
light: DIVMTQSPDSLAVSLGERATINCKASQSVSNDVAWYQQKPGQPPKLLIYYVSHRFTGVPDRFSGSGSGTDFTLTISSLQAEDVAVYFCHQAYRSPWTFGQGTKLEIKRTVAAPSVFIFPPSDEQLKSGTASVVCLLNNFYPREAKVQWKVDNALQSGNSQESVTEQDSKDSTYSLSSTLTLSKADYEKHKVYACEVTHQGLSSPVTKSFNRGEC
notes: humanized; 5C10VH1 + 6A10VL2
As to B4, the results for the “Relative activity (%)” value in assay [6] and in assay [11] were 143% and 126%, respectively. In addition, the EC50 in assay [7] is 0.00426 µg/mL; in the assay with mouse CD112R antigen [2], approximately 683 µg/mL; in assay [10] it was 0.00292 µg/mL. In addition, in [8], the 50% inhibitory concentration (IC50) amounted to 2.5 µg/mL. Moreover, in [9], the “EC50, CD112R/CD112 reporter” value was 0.0196 µg/mL. Also, the “Relative activity (%), EC50 COM701/EC50 antibody” value in assay [9] worked out at 253%.

B5: Hu52 (antibody, human IgG4 S228P, kappa)
heavy: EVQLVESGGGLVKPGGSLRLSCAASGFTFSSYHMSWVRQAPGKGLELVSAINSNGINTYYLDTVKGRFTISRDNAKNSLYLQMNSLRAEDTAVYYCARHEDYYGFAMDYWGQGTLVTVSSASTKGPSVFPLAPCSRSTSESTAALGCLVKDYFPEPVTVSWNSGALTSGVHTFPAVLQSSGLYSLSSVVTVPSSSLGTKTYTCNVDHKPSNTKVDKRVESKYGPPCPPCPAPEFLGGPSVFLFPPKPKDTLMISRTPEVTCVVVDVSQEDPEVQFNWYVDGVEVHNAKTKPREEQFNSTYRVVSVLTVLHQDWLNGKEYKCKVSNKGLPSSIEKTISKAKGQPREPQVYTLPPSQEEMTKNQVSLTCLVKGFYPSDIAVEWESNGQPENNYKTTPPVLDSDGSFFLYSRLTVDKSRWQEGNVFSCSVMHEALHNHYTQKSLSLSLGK
light: DIVMTQSPDSLAVSLGERATINCKASQSVSNDVAWYQQKPGQPPKLLIYYVSHRFTGVPDRFSGSGSGTDFTLTISSLQAEDVAVYFCHQAYRSPWTFGQGTKLEIKRTVAAPSVFIFPPSDEQLKSGTASVVCLLNNFYPREAKVQWKVDNALQSGNSQESVTEQDSKDSTYSLSSTLTLSKADYEKHKVYACEVTHQGLSSPVTKSFNRGEC
notes: humanized; 7C2VH1 + 6A10VL2
On to B5, for which the “Relative activity (%)” value in assay [6] turned out to be 95.5%; in assay [11], 161%. Further, the EC50 in assay [7] came out at 0.00568 µg/mL; in the assay with mouse CD112R antigen [12] it was 1870 µg/mL; in assay [10] it was 0.00309 µg/mL. Also, in [8], the IC50 came out at 2.52 µg/mL. The “EC50, CD112R/CD112 reporter” value in assay [9] turned out to be 0.018 µg/mL. For the same molecule, the “Relative activity (%), EC50 COM701/EC50 antibody” value in assay [9] came out at 415%.

These data come from patent US20240309087A1 (SHANGHAI JUNSHI BIOSCIENCES, published 2024).
